Where only a bound is given, the exact number is not on record here.

The text below walks through data of patent US20170082609A1.

The target of test [1] is CDHR3 Cys529→Tyr variant (human) (UniProt Q6ZTQ4). Put plainly: virus bound to transfected HeLa cells 2 h p.i., viral RNA by qRT-PCR.
The target in test [2] is human cadherin-related family member 3 (CDHR3), wild-type (human) (UniProt Q6ZTQ4). The experiment in a line: cell-based or functional assay.
Test [3] has as its target CDHR3 Cys529→Tyr variant (human) (UniProt Q6ZTQ4). The experiment in a line: cell-based or functional assay.
The target of test [4] is CDHR3 Cys529→Tyr variant with Asn186→Ala (human) (UniProt Q6ZTQ4). The experiment in a line: cell-based or functional assay.
Test [5] shares this target. The experiment in a line: virus bound to transfected HeLa cells 2 h p.i., viral RNA by qRT-PCR, against CDHR3 Cys529→Tyr without the mutation. Background: Quantitative PCR measures a nucleic acid by following its amplification.

For “rhinovirus C15 (RV-C15), recombinant virus from the clinical isolate's infectious clone”, the fold binding relative to the wild-type CDHR3 in test [1] worked out at 10 fold. In addition, the replication (RV-C RNA compared to input) in test [2] was determined as 2 log. In test [3], this substance returned a progeny yield relative to the wild-type CDHR3 of 10 fold and a replication in HeLa-E8 cells (viral RNA from 2 h to 24 h post infection) of more than 2 log. In test [4], the replication is 70%. The percent impairment of virus binding in test [5] was more than 70%.
